According to article PMC10805311, “Pseudomonas aeruginosa two-component system CprRS regulates HigBA expression and bacterial cytotoxicity in response to LL-37 stress” (PLOS Pathogens, 2024):
Where a chain is given by its changes, count along the chain named.

Columns and labels:
[1] = test system: CprR / higB DNA fragments; assay: EMSA, CprR binding to higB promoter DNA; set-up: species or system P. aeruginosa; settings: 4°C 30 min
Method: (§1) The gene promoters were obtained by PCR. The CprR and DNA fragment were mixed in different ratios (total 10 μL buffer, 25 mM Tris–HCl pH 7.5, 150 mM NaCl, 1 mM MgCl2, 2 mM KCl) and incubated at 4°C for 30 min, then the samples were analyzed by 8% polyacrylamide gel electrophoresis in 0.5 × TBE (Tris/boric acid/EDTA) buffer at 130 V for 120 min. The bands were staining with EB and visualized through BioRad imager.

[2] = test system: CprRD53A / higB DNA fragments; assay: EMSA, CprRD53A binding to higB promoter DNA; set-up: species or system P. aeruginosa; settings: 4°C 30 min
Method: as §1

[3] = test system: T1, CprR W180A W181A (Pseudomonas aeruginosa), ORF:b369b159; assay: EMSA
T1 sequence: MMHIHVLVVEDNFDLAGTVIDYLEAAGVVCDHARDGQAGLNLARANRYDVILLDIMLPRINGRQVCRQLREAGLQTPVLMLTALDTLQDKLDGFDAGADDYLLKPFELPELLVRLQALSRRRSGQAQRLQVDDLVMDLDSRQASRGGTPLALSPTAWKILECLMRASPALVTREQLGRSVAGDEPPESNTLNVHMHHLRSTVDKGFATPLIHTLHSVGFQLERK

[4] = test system: T2, CprR S187A S188A (Pseudomonas aeruginosa), ORF:b369b159; assay: EMSA
T2 sequence: T1 sequence with A181W, S188A

[5] = test system: T3, CprR N188A N189A (Pseudomonas aeruginosa), ORF:b369b159; assay: EMSA
T3 sequence: T1 sequence with A181W, N189A

[6] = test system: T4, CprR H214A H215A (Pseudomonas aeruginosa), ORF:b369b159; assay: EMSA
T4 sequence: T1 sequence with A181W, H215A

[7] = test system: T5, CprR R198A R199A (Pseudomonas aeruginosa), ORF:b369b159; assay: EMSA
T5 sequence: T1 sequence with A181W, R199A

[8] = test system: T6, CprR V192A V193A (Pseudomonas aeruginosa), ORF:b369b159; assay: EMSA
T6 sequence: T1 sequence with A181W, V193A

[9] = test system: T7, CprR (Pseudomonas aeruginosa (PAO1 or PA14; strain of cloned gene not stated)), ORF:b369b159; assay: EMSA
T7 sequence: T1 sequence with A181W

[10] = test system: biofilms of uropathogenic E. coli; settings: cited from earlier work
Text: In the field of microbiology and immunology, the interaction between host antimicrobial peptides and pathogenic bacteria has been a subject of extensive research. The success of bacterial infections depends on a delicate balance of signals exchanged between microbes and hosts. Cationic antimicrobial peptides, including defensins such as α-defensins, β-defensins, and cathelicidin LL-37, are crucial components of innate host defense against bacterial infections. Numerous studies have shown that LL-37 acts as a shield between the host and the external environment, preventing bact ...

CC(=O)OP(=O)(O)O [acetyl phosphate (ACP), acetyl phosphate]
effect of acetyl phosphate on DNA binding of CprR [1]: enhanced the binding of CprR to its target higB DNA fragments
effect of acetyl phosphate on DNA binding of CprR ([1]; listed as AcP): enhanced the DNA-binding ability of CprR
effect of acetyl phosphate on DNA binding of the D53A mutant [2]: unable to exhibit this enhanced binding

CTGGTCGAGTCGATGATGGTGGCCGGGCGCTGAGGCCGGGTTTCCCTCTATAAAACGCCAGCGCTCGTCGCTGGCGTTTTCGTTTCCGCCTGTTCAATTGTCCGCCTCTATGGGGACCATGCTTGTCTTTTGCCAAGAAGAAAACAATAATCAATCTCATTATCGTCTGGTGAGGTTGCC (double strand) [higB promoter (PhigB)]
binding [3]: binds more weakly
binding [4]: binds more weakly
binding [5]: binds more weakly
binding [6]: binds more weakly
binding [7]: binds more weakly
binding [8]: binds more weakly
binding [9]: binds

Cecropin A
biofilm disruption [10]: disrupt biofilms of uropathogenic E. coli
